This note sets out measurements from PMC9552509.

The assay has as its target TACC3 (UniProt Q9Y6A5). As to the kind of experiment: co-IP with anti-FLAG and anti-TACC3. The settings on record: reference: wild-type stathmin1-FLAG; sites S16.

On to “stathmin1 (from UniProt P16949) stathmin1 S16A-FLAG”, for which the “binding against the reference” value is on record as “lost”.
